{"source": "paper PMC11189522", "about": "“Exploring the sequence-function space of microbial fucosidases” (Communications Chemistry, 2024)", "molecules": {"B1": {"name": "NyGH29^4A (Niastella yeongjuensis) (protein)", "chain": "QTYSPNWESLDARPAPQWFKDAKFGIFIHWGVYSVPAWAPVGKDYAVYSKYSEWYWNRLVTDSSKVGKAFRAYHNSTYGPNFKYQDFAPLFKAELFNPEQWADVFKNAGAQYVVLTSKHHDGFALWPSAEAWNWNAADVGPHKDLAGELTNAVKEKGLHMGFYYSLYEWFNPLYKSDIDKYVSEHMMPQLKDLVNRYKPDIIWPDGEWEHPSETWKSTQFLAWLYNESPVKNTVVVNDRWGKETRSKHGGYYTTEYDIVHNEDASKKQFEHPWEECRGIGGSFGYNRNETLGDYETSDAVIHMLIQKVARGGNLLLDIGPAADGTIPVIMQQRLADMGAWLKTNGEAIFGTTATKQPSINGAWFTQKNMDLYVILTAKMDKPLTFDLATAPGKATLLGVNKKVTVSYRSGKCTINPLELYPNLPAGGYAWVIKLEGAAGK"}, "B2": {"name": "SgGH29^9A (Sphaerochaeta globosa str. Buddy) (protein)", "chain": "MKHEAVQQWLDLQFGLFIHFGLYSLPGGVWKGERITRGYSEQILSHGYLPQADYEALTEQFSLPEFNPKHIVTTAKQAGMRYLVITTKHHDGFCLFDTNTTDYKSTNAACKRDIVKDLSDECKKQGLAFGIYFSWIDWHFSEAAAISSHNSDPIPSSHQRLNIAQLTELLSNYGPMCELWMDMGAPTAEQSQEVYDLVQSLQPQCMVNGRIWNDKQDFLTMGDNQLPAVPLNCPWQTPASIYKETWGYRSWQVRGDRDEKIQELSDTARKVVQEGGNYLLNIGLMGTGAIQSFEQEVLEGIGTVLAKNPLKREQNKRILPKIVPGQLCAEPLVAYRYTGTEYYSYRPIPTTLCWALQLNEDTSICIGWESDQGLAREQKLCLEIAGKQYYSSLQKGRTSDTFITALKLKKGKHEICLHTIGDELKRPELVDTTLRLVLRKEGK"}, "B3": {"name": "TfFuc1^8A (Tannerella forsythia 92A2) (protein)", "chain": "PAQPGYTPSADNLKARETFQDDKFGIFIHWGIYSMLADGEWVMHNKNLNWEEYAKLASGFYPAKFNAAEWVAAIKASGAKYITITSRHHDGFSMYATQQSDYNIVDATPFKRDVIHELADECRKQGIRLHLYYSHLDWRRDDYYPLGRTGKGTGRTTQGKWEDYCAFMNNQLTELLTNYGLIGAIWFDGMWDKDIYPDGMTAKTWNLNEQYTLIHRLQPACLIGNNHHITPFAGEDIQIFERDLPGENKAGLSGQDISRLPLETCETMNGMWGYKITDQDYKSTKILIQYLVKAAGKNANLLMNVGPQPNGELPTVAVQRLREMGEWMKIYAPTIQGTRGGVVTPRDWGVTTQKGKTLYVHVLNLDDKALFLPYAGNKLKSAVEYQSRKSVRFIQDRDGILLKFTDKPHSPDYVLELTFANELPLN"}, "B4": {"name": "SmGH29^1B (Streptococcus mitis B6) (protein)", "chain": "MVREIKPHGPLPSQAQLAYLEDELAAFIHFGPNTFYDQEWGTGQEDSERFNPTRLDAREWVRVLKEMGFKKLILVVKHHDGFVLYPTAYTDYSVKASPWRNGEGDLLLEVSQAATEFDMDMGVYLSPWDAHSPLYHVDQEADYNAYYLAQLKEILSNPAYGNGGKFAEVWMDGARGEGAQKVNYEFEKWFETIRDLQGDCLIFSTEGTSIRWIGNERGYAGDPLWQKVNPDKLGTEAALDYLQHGDSSGTIFSIGEADVSIRPGWFYHEEQDPKSLEELVEIYFHSVGRGTPLLLNIPPNQDGLFDEKDIKRLYEFATYRNELYKEDLALGAKVYGPALSADFACHHLTDGLESSSWASDADLPIQLELDLGFPKTFDVIELREDLKLGQRIAAFHVQVEVDGVWQEFGTGFTVGHKRLLRGPLVEAQKVRVMITESQDLPVLTKISLYKTPSLSQKEVVQGLAFAEKSLSVAKGETLHFRIERSESNTPLEAKISIQPGTGVHGIAYQDEIQVLQFQAGESKKDLCLPTLHFAADKTLDFYLNLTVDGQLVDQLQVQVS"}, "B5": {"name": "RiGH29^2A (Roseburia intestinalis) (protein)", "chain": "MSEQQKEQQLLETVDRIIAEGPYQPAWSSLMQTKTPDWFKQKRFGIFIHWGVYSVPANSNEWYPRNMYIEGMPAYEHHIKTYGSQKDFGYKDFIPMFHAEKFDPAEWVRLFKEAGAGYVFPVAEHHDGFQMYKSELSHWNSAEMGPKRDVLGELKAEIEKQGLTFCTSSHRAEHWFFLGHGKEFDSDIKEPLQKGDLYWPSMPEPDAEDLYGEPYPTEEFLNDWLARTAEIILNYKPSLLYFDWWVQHQAFKPYLKKLAAFYYNCGVKWGKDVKICYKHDAMMFGSGIVEVERGGFAEAKPYDWQTDTAVARNSWCYTDTLDYKSSNEIICTLVDVVSKNGNLLLNIGPKADGTIPDGDRAILEDLAKWMKVNSEAVIGANVWRKSMEGPTAAAEGQFQDQKELKFTNKDYRFTINHGNIYAIALQCPKDGVFCIRSLADSSDQNVPEFHGIIESVDILGYDGRLQWSVDGEGLHVTAPGIDSEFPVVVRVRPE"}, "B6": {"name": "StGH29^nc (Sphingopyxis terrae subsp. ummariensis) (protein)", "chain": "AATVTGAGLGPQPRFPITGLPVLNPILRLYPEKSVFRSGDIRFGVGELEMMIPFLGTGEIVWSVNVSEAKRYRIALCYSTVNETQPVTISVNGQDVPFAAPRTKGYFIPHPEGPVDDPGDPDTDGFWRMREYYLFERKPVAGEVDLVRGVNVVKLKVTAPKGKEAFRLRSIELTPVDKVAEIEADLTRQRANRANTDWFANAGYGMWFHFLDLTTPRVGPRKSYEDAVNALDVPKLAKMVDDCGARYLIWTVNHGNPTCPAPIKAWERLHPGMTTKRDLIMELADELAKYNIELMLYQNCPGTGGLIQQHQRAIDTPTFSEVEYANQLIDVFNEFGARYGTKVKGWWLDSWFQTMESYPNLPNEAINRAIKSGNRNCMSSFNGWAFPNEVECQDYWCGEITDLPAKPFGARYLKDGPAAGLQAHSAIKLDAPWFHVTENMEMEPPLYSARELADYIAICQRDQAPVTLGVGIYQDGTIGPKSYAVLTELRGLIRKGKARR"}, "B7": {"name": "BaGH29^26A (Bifidobacterium asteroides) (protein)", "chain": "MSDTVEWFKQAKYGMMIHWGLYSLLGGEYQGKSSSNYAEWVQSKLQIPNKEYERLTQAFNPIYFDADAIIDLAKRCGMQYLVVTTKHHDGFAMYRSLVDPYNVYDATPFHRDVIGELSLACRKAGLRFGLYYSQDLDWHEPDGGGYLSNDIETAGTTWDNSWDFTGEKNYDRAFKHKIMPQIEEIMSNYGEISVAWFDVPMTLSDEQSQTIYDTVKRLQPDCLINSRLGNGRYDYVSLGDNEIPEDSDASDKATSDGNVDYNSIEGFKPSKLGLYETAGTINDSWGFAYHDQNWKSPQTIHDYKAHLNKYGINYLLNVGLDGLGRVPMAAEQALLGARALEA"}, "B8": {"name": "PgGH29^1B (Porphyromonas gingivalis ATCC 33277) (protein)", "chain": "GQGQEVYYPGSVVFPADATLEQKVEMAAKVVPTLQQLAWQQMELTAFLHFGINTFTDSEWGDGKEDPALFNPVELDARQWVRILHEAGFRMVILTAKHHDGFCLWPTATTRHSVASSPWREGKGDVVKEVRAACEEYGMKFGIYLSPWDRNAECYGDSHRYNRFFVSQLTELLTHYGEVHEVWFDGANGEGPNGKRQEYDWETFYDTIRRLQPQAVMAIMGDDVRWVGNERGLGRTTEWSATVLTPGIYSRSKTERNRLGIRENSPDLGSREVLKEAGEIFWYPSEVDVSIRPGWFYHAAEDKKVKSLDKLVDIYFQSVGYNSVLLLNVPPDRRGLIHEADALRLKEWADYLGRAFAHDRVVDSARYAVVQEHAVEEYALESKTHINILMLQEDITKGQRTEAFTVEAWVDGAWQEIGRGTTIGYKRLLRIPAVETDRIRVRIEQCRLPVNLCRVAVYYAEPPEQVVADESWNDIPRADWKLLSDDPLTIDLGREVMLRAFTYAPYKAEAKPTTAVRYRLAVSEDGRQWREIPTMGEFANVINNPLPQTVDMNQIVRTRFIRLDATAASGDKAVITMQEIGVTVE"}}, "key": {"[1]": {"test_system": "C[C@@H]1O[C@@H](Oc2ccc([N+](=O)[O-])cc2Cl)[C@@H](O)[C@H](O)[C@@H]1O", "test": "purified protein", "conditions": "pH 6.0; 37.0 °C"}, "[2]": {"target": "T1, BaGH29^26A (Bifidobacterium asteroides, UniProt A0A0F4KU40)", "T1 construct": "gene JF69_08700", "test": "X-ray crystallography", "assay_type": "binding", "conditions": "co-crystallised with 5 mM 2'FL; active site"}, "[3]": {"substrate": "C[C@@H]1O[C@@H](Oc2ccc([N+](=O)[O-])cc2Cl)[C@@H](O)[C@H](O)[C@@H]1O", "test": "purified protein", "assay_type": "biochemical, Niastella yeongjuensis", "conditions": "50 mM citrate pH 6, 37 °C"}, "[4]": {"substrate": "C[C@@H]1O[C@@H](Oc2ccc([N+](=O)[O-])cc2Cl)[C@@H](O)[C@H](O)[C@@H]1O", "test": "purified protein", "assay_type": "biochemical, Sphaerochaeta globosa", "conditions": "50 mM citrate pH 6, 37 °C"}, "[5]": {"substrate": "C[C@@H]1O[C@@H](Oc2ccc([N+](=O)[O-])cc2Cl)[C@@H](O)[C@H](O)[C@@H]1O", "test": "purified protein", "assay_type": "biochemical, Tannerella forsythia", "conditions": "50 mM citrate pH 6, 37 °C"}, "[6]": {"substrate": "C[C@@H]1O[C@@H](Oc2ccc([N+](=O)[O-])cc2Cl)[C@@H](O)[C@H](O)[C@@H]1O", "test": "purified protein", "assay_type": "biochemical, Streptococcus mitis", "conditions": "50 mM citrate pH 6, 37 °C"}, "[7]": {"substrate": "C[C@@H]1O[C@@H](Oc2ccc([N+](=O)[O-])cc2Cl)[C@@H](O)[C@H](O)[C@@H]1O", "test": "purified protein", "conditions": "pH 6.0; 37.0 °C", "remark": "listed apart in the source"}, "[8]": {"substrate": "C[C@@H]1O[C@@H](Oc2ccc([N+](=O)[O-])cc2Cl)[C@@H](O)[C@H](O)[C@@H]1O", "test": "purified protein", "assay_type": "biochemical, Sphingopyxis terrae", "conditions": "50 mM citrate pH 6, 37 °C"}, "[9]": {"substrate": "C[C@@H]1O[C@@H](Oc2ccc([N+](=O)[O-])cc2Cl)[C@@H](O)[C@H](O)[C@@H]1O", "test": "purified protein", "assay_type": "biochemical, Bifidobacterium asteroides", "conditions": "50 mM citrate pH 6, 37 °C"}, "[10]": {"substrate": "C[C@@H]1O[C@@H](Oc2ccc([N+](=O)[O-])cc2Cl)[C@@H](O)[C@H](O)[C@@H]1O", "test": "purified protein", "assay_type": "biochemical, Porphyromonas gingivalis", "conditions": "50 mM citrate pH 6, 37 °C"}}}
{"molecule": "BsGH29^44B (Bacteroides sp. SM23_62)", "values": [{"measurement": "Km", "setting": "[1]", "result": "299.60 ± 25.340", "unit": "µM"}]}
{"molecule": "FbGH29^26A (Firmicutes bacterium CAG:345)", "values": [{"measurement": "Km", "setting": "[1]", "result": "188.10 ± 32.870", "unit": "µM"}]}
{"molecule": "LaGH29^3A (Lysobacter antibioticus)", "values": [{"measurement": "Km", "setting": "[1]", "result": "208.10 ± 33.240", "unit": "µM"}]}
{"molecule": "C[C@@H]1O[C@@H](O)[C@@H](O)[C@H](O)[C@@H]1O", "note": "[Fuc]", "values": [{"measurement": "X-ray crystallography", "setting": "[2]", "result": "resulting in a complex with Fuc bound in the active site"}]}
{"molecule": "RsGH29^3A (Rhodopirellula sp. SWK7)", "values": [{"measurement": "Km", "setting": "[1]", "result": "668.00 ± 69.040", "unit": "µM"}]}
{"molecule": "B1", "values": [{"measurement": "Km", "setting": "[3]", "result": "279.80 ± 10.820", "unit": "µM"}, {"measurement": "kcat", "setting": "[3]", "result": 0.00383, "unit": "s⁻¹"}]}
{"molecule": "B2", "values": [{"measurement": "Km", "setting": "[4]", "result": "495.20 ± 171.80", "unit": "µM"}, {"measurement": "kcat", "setting": "[4]", "result": 2.4117, "unit": "s⁻¹"}]}
{"molecule": "B3", "values": [{"measurement": "Km", "setting": "[5]", "result": "153.70 ± 21.810", "unit": "µM"}, {"measurement": "kcat", "setting": "[5]", "result": 8.9117, "unit": "s⁻¹"}]}
{"molecule": "B4", "values": [{"measurement": "Km", "setting": "[6]", "result": "289.50 ± 14.610", "unit": "µM"}, {"measurement": "kcat", "setting": "[6]", "result": 0.865, "unit": "s⁻¹"}]}
{"molecule": "B5", "values": [{"measurement": "Km", "setting": "[7]", "result": "302.30 ± 7.0500", "unit": "µM"}]}
{"molecule": "B6", "values": [{"measurement": "Km", "setting": "[8]", "result": "290.60 ± 19.810", "unit": "µM"}, {"measurement": "kcat", "setting": "[8]", "result": 0.00733, "unit": "s⁻¹"}]}
{"molecule": "B7", "values": [{"measurement": "Km", "setting": "[9]", "result": "222.00 ± 20.100", "unit": "µM"}, {"measurement": "kcat", "setting": "[9]", "result": 12.108, "unit": "s⁻¹"}]}
{"molecule": "B8", "values": [{"measurement": "Km", "setting": "[10]", "result": "302.10 ± 9.6900", "unit": "µM"}, {"measurement": "kcat", "setting": "[10]", "result": 1.8767, "unit": "s⁻¹"}]}
